In PMC2809015:

Experiments:
[1] = molecular target: IscA, FeS cluster assembly scaffold protein (E. coli) (UniProt P0AAC8)
[2] = molecular target: HscB, co-chaperone of HscA (E. coli) (UniProt P0A6L9)
[3] = molecular target: IscU, FeS cluster assembly scaffold protein (E. coli) (UniProt P0ACD4)
IscU (Escherichia coli) = IscU (Escherichia coli) (UniProt P0ACD4); assay: surface plasmon resonance; settings: cited from earlier work
Chain of IscU (Escherichia coli) (P0ACD4 whole entry): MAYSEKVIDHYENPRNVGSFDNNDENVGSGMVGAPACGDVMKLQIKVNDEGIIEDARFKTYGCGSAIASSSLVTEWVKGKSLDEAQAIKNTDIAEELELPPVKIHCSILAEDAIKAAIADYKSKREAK

Chain of HscA (P0A6Z1 whole entry): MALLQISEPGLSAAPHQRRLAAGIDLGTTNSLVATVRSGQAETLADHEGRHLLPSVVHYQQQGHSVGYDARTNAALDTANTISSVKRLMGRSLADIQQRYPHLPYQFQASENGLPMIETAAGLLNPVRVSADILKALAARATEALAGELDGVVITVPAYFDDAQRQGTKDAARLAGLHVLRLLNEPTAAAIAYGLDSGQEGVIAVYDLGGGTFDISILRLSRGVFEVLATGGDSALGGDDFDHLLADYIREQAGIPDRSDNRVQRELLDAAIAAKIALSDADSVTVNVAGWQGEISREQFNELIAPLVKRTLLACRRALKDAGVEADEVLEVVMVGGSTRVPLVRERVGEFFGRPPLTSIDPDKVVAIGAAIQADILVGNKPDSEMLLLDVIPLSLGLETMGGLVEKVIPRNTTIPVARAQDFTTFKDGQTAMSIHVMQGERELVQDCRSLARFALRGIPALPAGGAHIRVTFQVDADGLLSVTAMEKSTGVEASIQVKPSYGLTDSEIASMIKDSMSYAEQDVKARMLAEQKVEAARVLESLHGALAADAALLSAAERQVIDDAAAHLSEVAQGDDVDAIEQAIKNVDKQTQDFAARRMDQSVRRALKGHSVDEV
Chain of HscB, co-chaperone of HscA (E. coli) (P0A6L9 whole entry): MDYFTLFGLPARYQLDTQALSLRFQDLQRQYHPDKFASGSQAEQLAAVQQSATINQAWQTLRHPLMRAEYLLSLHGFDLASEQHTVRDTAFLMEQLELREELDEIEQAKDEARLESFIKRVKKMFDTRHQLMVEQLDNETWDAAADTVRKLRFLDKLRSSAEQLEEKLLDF
Chain of IscU, FeS cluster assembly scaffold protein (E. coli) (P0ACD4 whole entry): as the sequence (P0ACD4 whole entry) above
Chain of IscA, FeS cluster assembly scaffold protein (E. coli) (P0AAC8 whole entry): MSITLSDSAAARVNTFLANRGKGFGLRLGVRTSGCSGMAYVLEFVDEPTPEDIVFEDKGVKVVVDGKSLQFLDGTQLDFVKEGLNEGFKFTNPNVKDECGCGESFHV
Chain of Biotin synthase (BioB), cluster state not stated for the experiment (P12996 whole entry): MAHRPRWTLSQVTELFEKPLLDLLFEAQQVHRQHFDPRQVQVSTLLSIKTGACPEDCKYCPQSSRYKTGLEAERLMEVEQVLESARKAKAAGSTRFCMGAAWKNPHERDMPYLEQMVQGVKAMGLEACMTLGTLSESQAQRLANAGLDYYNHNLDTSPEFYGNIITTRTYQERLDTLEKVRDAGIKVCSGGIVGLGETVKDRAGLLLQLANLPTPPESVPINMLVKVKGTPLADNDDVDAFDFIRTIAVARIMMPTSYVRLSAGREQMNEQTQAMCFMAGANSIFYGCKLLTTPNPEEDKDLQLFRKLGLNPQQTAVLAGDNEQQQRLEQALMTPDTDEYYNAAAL

Substance	Kd [1]	Kd [2]	Kd [3]	Kd (IscU (Escherichia coli))
Biotin synthase (BioB), cluster state not stated for the experiment (from UniProt P12996 1-346) (enzyme)	> 10 µM	> 10 µM	> 10 µM	–
HscA (from UniProt P0A6Z1)	–	–	–	9.3 µM
